The record followed here is the supplement of paper PMC12042874.

± gives the uncertainty stated by the source.

The nature of this data set: amyloid nucleation score (Sup35N fusion, yeast selection) (log enrichment); library NNK1; higher = more nucleation; inactive = no reads after selection. Put shortly: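 The nucleation score equals the log enrichment of output over input reads from DiMSum, centred on the mode score of non-aggregating sequences. It was computed only for sequences with 100 or more input reads. The reads came from Illumina sequencing of plasmid inserts from psi-negative yeast expressing Sup35N fused to peptides of 20 random codons, induced with 100 μM copper sulfate for 24 hours and grown 7 days at 30°C without adenine and uracil.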
INDSRFVAYTCLRVTEKYGL: the amyloid nucleation score stood at 0.855 ± 0.22. MYLVM came in with an amyloid nucleation score of 0.191 ± 0.48. The same measure for SHFLF: 0.93 ± 0.7. For the substance RAMDYFALEIQLVPRRLVQL, the amyloid nucleation score came to 0.18 ± 0.41. Turning to DGTNAYV, the amyloid nucleation score was -0.986 ± 0.56.

As for MVLDLVRRNAQL, the amyloid nucleation score is -0.151 ± 0.68. The same measure for SHYSSIVYGAMEDSGL: -1.6 ± 2.4; for FSCCILPCSLSHSMVFLGSG: 8.064 ± 0.08. The same measure for DRVLAVVYAAFAGFRRCMRR: “inactive”; for ISLSSGLALKPS: 1.41 ± 0.48; for DYPRSIILCWHF: -1.39 ± 0.74. The same measure for RWMELMALSRKTPGRQKARC: -0.745 ± 1.5. Turning to CRTCGFPLLYSAELVLEVC, the amyloid nucleation score was determined as 0.018 ± 0.45. The same measure for VGKITESLLEQLKARHLFCH: 4.41 ± 0.058. The same measure for ISLRGRCITSKGSSYYAIKY: “inactive”; for SVLGSHSRAKLITAWPTRKI: “inactive”. The same measure for SRDVVSAGYKKCGYGMYCTK: 1.11 ± 0.37. Substance WLDRGW came in with an amyloid nucleation score of 0.282 ± 0.33.

KMLNISGDTMWYVILVLRYV: the amyloid nucleation score was -0.292 ± 0.56. The same measure for HSKLFFLWHPWWL: “inactive”. The same measure for KVFGTRPSQCLGFN: -0.806 ± 0.65; for YLNILMSWI: -0.921 ± 0.66. The same measure for CIRGGSIWLMGHNVREVC: 0.401 ± 0.49; for CYCFGQCWYDYVCIELLIGR: 5.06 ± 0.052; for TWCCYCFLRVFFEERE: -0.298 ± 0.33. In turn, CMSLFRYENVQYLFTRIHSI had an amyloid nucleation score of 1.43 ± 0.34. GLSLIA came in with an amyloid nucleation score of 0.983 ± 0.76. The same measure for TKCGIAYFTQICLVPDVSNS: 7.04 ± 0.085. The same measure for TFVYVKASLSSTIAASYVAQ: 1.34 ± 0.27; for RTLPSG: -0.12 ± 0.19; for KRGLAVLGAPKQMQTACWGQ: 0.229 ± 0.83. The same measure for FASWFFMCRDGGLIM: -0.573 ± 0.66; for ALWNYAVNSTLWWGLGYGWR: 0.052 ± 0.41; for MASHGDWGCSNRVFLFPHCR: -2.08 ± 1.9. FCPTVETYNVW returned an amyloid nucleation score of 2.12 ± 0.14. The same measure for YINVLVKAHGMMVPRRLKWV: 0.086 ± 0.32; for CIVVTLYSIMFRDGS: “inactive”. The same measure for MVVFRSY: -2.07 ± 1.9; for ILESRVPCCLKRGLNKEIGL: 0.672 ± 0.46; for YFDKKLGLS: “inactive”. The same measure for LMRHMFAWVDFIFSGSTQAC: 1.14 ± 0.97. On to HPYIWSVPDYKPFRAQAARV, for which the amyloid nucleation score was -0.029 ± 1.6.

Turning to YEMSY, the amyloid nucleation score was -1.38 ± 2.4. The same measure for VNFFLFRQCKGSFAWNHTVA: 6.336 ± 0.058. The same measure for GYSNFTNYLFQ: 0.091 ± 0.28; for WKCWGLCHLQR: -1 ± 0.93. The same measure for FKEDITFADGISDWSCQYTM: “inactive”; for YMLLTLGLTTLVCNSHRLVL: 0.026 ± 0.55. As to RSFTVCEFMFLFRLWDNSAY, the amyloid nucleation score stood at 0.11 ± 0.9.

Substance VFGCSGLDKSQWND registered an amyloid nucleation score of 0.434 ± 0.45. The same measure for CSGWMNGLSRVKPAHL: “inactive”; for HRSTVAKSTRKLPGICSVFW: 0.845 ± 0.8.

On to SMQQVSTSVQKVMDAYHWGW, for which the amyloid nucleation score turned out to be 0.554 ± 0.79.

Consider LSIWFFVYVLVG, for which the amyloid nucleation score came to 0.043 ± 0.78. On to DNVCRYGRKCWKRERESGQT, for which the amyloid nucleation score was 0.105 ± 0.42. Substance GCGMDGWDVQ displayed an amyloid nucleation score of 0.103 ± 0.25.

Turning to FFCSNDLSFVAELILINRQV, the amyloid nucleation score came to 0.87 ± 0.58.

As to HVNFNKGRMGGADSAVRCWW, the amyloid nucleation score was -1.52 ± 1.8. The same measure for RSSILMVVVANHSIIVTRGV: 3.04 ± 0.13.

With RGRRDAGGYRSKSFLGAWGV, the amyloid nucleation score was determined as 0.837 ± 0.21. The same measure for SGHNLWRRGQKWSL: -0.455 ± 0.58; for GNVAWYTSIGCGGMILWADF: -0.124 ± 0.76. The same measure for WNMLPSIPGDRGWLDGVPVV: -0.45 ± 0.39. The same measure for LLVKNHMRSQEWPLKNSLTN: -1.24 ± 2.4; for TYWGC: 0.186 ± 1; for LAFTCFH: 0.568 ± 0.28. For the substance KTLSLLIL, the amyloid nucleation score worked out at 0.387 ± 0.37.

GVNLRSNRESSVCDNWRGLR had an amyloid nucleation score of 0.423 ± 0.42. The same measure for NNNESEWMRGFSLKEGPTQE: 0.111 ± 0.84; for FGSSVSAVNFRVV: -0.448 ± 0.4.

Consider NKYLLNF, for which the amyloid nucleation score result is “inactive”. For YHLTQYDTMLLQYMWNHDWD, the amyloid nucleation score was -0.707 ± 0.89. GNSSNAMKFEIHISSDHVAY came in with an amyloid nucleation score of 0.845 ± 0.14. The same measure for CIRVSIVID: 0.215 ± 0.38; for LVPPGSYRSCLSHGRNCYSC: -0.203 ± 0.46; for RKCLESTTRSFLAVRS: 3.3 ± 0.097. The same measure for FYIVFFTCLASSS: 1.94 ± 0.29. The same measure for NKYLDSKDWRAFCRSYFNLF: 0.891 ± 0.14; for GLTPMRHN: -1.01 ± 1.1. For AKSLVDRKRVDNPWRFSVGW, the amyloid nucleation score came to 0.297 ± 0.51. The same measure for ATRRSCNLCLNLEFT: “inactive”; for LFIFFKV: 0.049 ± 0.51.

In the case of SYLMQSFDKLCAA, the amyloid nucleation score is -0.033 ± 1.1. The same measure for VFSYGWLYQAPFFRFLHTGF: 0.109 ± 0.74; for LVHPQVSVGS: 0.632 ± 0.74.

For the substance WSSHYVSLRKVCVCGRRPWS, the amyloid nucleation score turned out to be 3.46 ± 0.079. YLRLFFVRCGHPDSETSYRS displayed an amyloid nucleation score of 0.418 ± 0.33.

As for SELGVSSVRLERAFILGSWT, the amyloid nucleation score was -1.63 ± 1. The same measure for SARYTLKPQPWVHHLLK: 0.523 ± 0.9. The same measure for AYAEIYERSEPGKDRHYLFM: -0.313 ± 0.74; for FKSILRYPADRKMS: 0.997 ± 0.76; for EVRSSFYPSHYYRALRDL: -1.37 ± 2.4. The same measure for YASTSNILLSIS: 0.546 ± 0.2; for EVLNIYLHNRLNVLFTELAS: -0.884 ± 1.4; for YNFCILCSSPIIVFAAPVQR: 8.034 ± 0.051. For the substance YHVMD, the amyloid nucleation score entry was “inactive”. The same measure for GMAVFV: 0.18 ± 1.1; for CSAASVCPGD: -0.116 ± 1.5.

On to AKLAS, for which the amyloid nucleation score amounted to 0.151 ± 0.59.

With DPFAHYISVYRDSHSVYLSS, the amyloid nucleation score entry is “inactive”. The same measure for YDSSLMGVWMCGCIARWEVS: -1.93 ± 2.7. The same measure for LCDDHRPELCVYIVWTVVGE: 3.19 ± 0.22; for SPIMEKACVD: -0.053 ± 1.6; for LSRPTYSRMHIWISCHLIVV: -0.707 ± 1.7. Regarding FEVSGMCRVQVVTYNFFSSS, the amyloid nucleation score was found to be 6.99 ± 0.088.
